# B1: EpoR: wild-type human erythropoietin receptor (SEQ ID NO: 2) expressed in T cells by MSCV retroviral transduction (protein)
# chain: MDHLGASLWPQVGSLCLLLAGAAWAPPPNLPDPKFESKAALLAARGPEELLCFTERLEDLVCFWEEAASAGVGPGNYSFSYQLEDEPWKLCRLHQAPTARGAVRFWCSLPTADTSSFVPLELRVTAASGAPRYHRVIHINEVVLLDAPVGLVARLADESGHVVLRWLPPPETPMTSHIRYEVDVSAGNGAGSVQRVEILEGRTECVLSNLRGRTRYTFAVRARMAEPSFGGFWSAWSEPVSLLTPSDLDPLILTLSLILVVILVLLTVLALLSHRRALKQKIWPGIPSPESEFEGLFTTHKGNFQLWLYQNDGCLWWSPCTPFTEDPPASLEVLSERCWGTMQAVEPGTDDEGPLLEPVGSEHAQDTYLVLDKWLLPRNPPSEDLPGPGGSVDIVAMDEGSEASSCSSALASKPSPEGASAASFEYTILDPSSQLLRPWTLCPELPPTPPHLKYLYLVVSDSGISTDYSSGDSQGAQGGLSDGPYSNPYENSLIPAAEPLPPSYVACS
# B2: EpoRm: truncated mutant Epo receptor, codon 439 TGG (Trp) changed to TAG (stop), SEQ ID NO: 6, expressed in T cells (protein)
# chain: MDHLGASLWPQVGSLCLLLAGAAWAPPPNLPDPKFESKAALLAARGPEELLCFTERLEDLVCFWEEAASAGVGPGNYSFSYQLEDEPWKLCRLHQAPTARGAVRFWCSLPTADTSSFVPLELRVTAASGAPRYHRVIHINEVVLLDAPVGLVARLADESGHVVLRWLPPPETPMTSHIRYEVDVSAGNGAGSVQRVEILEGRTECVLSNLRGRTRYTFAVRARMAEPSFGGFWSAWSEPVSLLTPSDLDPLILTLSLILVVILVLLTVLALLSHRRALKQKIWPGIPSPESEFEGLFTTHKGNFQLWLYQNDGCLWWSPCTPFTEDPPASLEVLSERCWGTMQAVEPGTDDEGPLLEPVGSEHAQDTYLVLDKWLLPRNPPSEDLPGPGGSVDIVAMDEGSEASSCSSALASKPSPEGASAASFEYTILDPSSQLLRP
# Tests used:
# STAT5 Y647 = experiment: Epo signaling: STAT5 phosphorylation by flow cytometry in transduced T cells; format: cell-based, human; conditions: for Epo signaling (pSTAT5) after JAK inhibitor: concentration that abrogated IL-2 signal
# Description: To detect Epo signaling, cells were incubated in cytokine-free media for 2 hours before stimulated with Epo (0.01-10 IU/mL) at 37° C. for 15 minutes to 24 hours. In some experiments, cells were treated with 0.1-10 μM of ruxolitinib (Selleckchem) or 0.5-5 nM tofacitinib (Santa Cruz Biotechnology, Santa Cruz, CA) for 1 hour prior to Epo stimulation. […] In some experiments, the effects of human Epo were compared to those of murine Epo (Biolegend, San Diego, CA).
# CD19+ Nalm6 ALL cells = experiment: Xenograft: Nalm6-luciferase cells followed 2 days later by EpoRm-CAR T cells, with or without Epo; format: in vivo, NSG mice; conditions: 100 IU Epo i.p. 3 times a week for 2 weeks
# Description: In another model to test anti-leukemic activity of T cells, Nalm6 cells transduced with luciferase were injected i.v. (5×10^5 cells per mouse), followed 2 days later by T cells expressing EpoRm-CAR (2×10^7 cells per mouse, i.v.), while control mice received no T cells; some mice received Epo (100 IU) 3 times per week i.p. Tumor cell load was determined with the Xenogen IVIS-200 System (Perkin Elmer, Waltham, MA) after injecting aqueous D-luciferin potassium salt (150 μg/g body weight; Perkin Elmer) i.p. Luminescence was analyzed with Living Image 3.0 software. Mice were euthanized when the luminescence reached 1×10^10 photons per second, or earlier if there were physical signs warranting euthanasia.
# Epo = experiment: Binding of biotinylated Epo to transduced Jurkat cells
# Source text: Biotinylated Epo was visualized with streptavidin-PE (Jackson ImmunoResearch).
# T lymphocytes [1] = experiment: T cell survival/recovery in culture with or without Epo and IL-2; format: cell-based, human
# Description: To assess cell survival, T cells were cultured in absence of exogenous cytokines, with or without Epo (4-10 IU/mL) in a flat bottom 96-well or 24-well plate (Cellstar). For cell proliferation, T cells were co-cultured with target cells (OP-1 cells) at 1:1 effector-to-target (E:T) ratio in a flat bottom 96-well plate; Epo (10 IU/mL) was added every two days. Target cells, irradiated (100 Gy) or treated with Streck cell preservative (Streck Laboratories, Omaha, NE) to inhibit growth, were added at the beginning of the cultures, and every 7 days thereafter. In some experiments, low dose (10 IU/mL) or high dose (100 IU/mL) IL-2 was added to the culture as well. The number of GFP+ T cells was measured by flow cytometry.
# Jurkat cells = experiment: Jurkat cell growth curves; format: cell-based, human
# T lymphocytes [2] = experiment: Cell cycle analysis (EdU DNA synthesis) after Epo stimulation; format: cell-based, human; conditions: exposure to Epo for 24 hours
# Description: To determine the effect of Epo on cell cycle, cells were cultured in cytokine-free media for 3 days followed by stimulation with 10 IU/mL of Epo for 1 day. DNA synthesis was measured by Click-iT EdU AF647 Flow Cytometry Assay Kit (Thermo Fisher Scientific), and DNA content was measured with FxCycle Violet Stain (Thermo Fisher Scientific).
# [3] = EpoRm-CAR T cells, Epo 10 IU/mL
molecule,measurement,setting,value
"C[C@@H]1CCN(C(=O)CC#N)C[C@@H]1N(C)c1ncnc2[nH]ccc12 [tofacitinib, reference compound]",Epo signaling (pSTAT5) after JAK inhibitor,STAT5 Y647; [3],no effect
same,STAT5 Y647 phosphorylation caused by IL-2 after JAK inhibitor,"STAT5 Y647; EpoRm-CAR T cells, IL-2 100 IU/mL",completely abrogated
"Epo: recombinant human Epo (Thermo Fisher Scientific), glycoprotein cytokine",pSTAT5 levels induced,"STAT5 Y647; EpoRm-CAR T cells, 1 IU/mL of Epo vs 50 IU/mL IL-2",significantly higher
same,effect of Epo injection on anti-leukemic activity,CD19+ Nalm6 ALL cells,did not affect the anti-leukemic activity
"N#CC[C@H](C1CCCC1)n1cc(-c2ncnc3[nH]ccc23)cn1 [ruxolitinib, reference compound]",Epo signaling (pSTAT5) after JAK inhibitor,STAT5 Y647; [3],no effect
B1,Epo binding,Epo,could bind Epo
same,survival in culture,"T lymphocytes [1]; Epo 4 IU/mL, absence of exogenous IL-2",supported their survival in culture
same,long-term cell growth of Jurkat cells,Jurkat cells,does not adversely affect
B2,functionality of EpoRm (pSTAT5) when expressed with CAR,"STAT5 Y647; Epo 10 IU/mL, 15 minutes",maintained
same,durability of STAT5 phosphorylation,"STAT5 Y647; Epo 10 IU/mL, time course",more durable
same,recovery of T cells,"T lymphocytes [1]; 7 days, Epo 10 IU/mL added to IL-2 100 IU/mL vs IL-2, 4 donors",significantly higher
same,expansion of T cells,"T lymphocytes [1]; 14 days, IL-2 100 IU/mL with Epo 10 IU/mL",performed better than EpoR cells
same,cell numbers in culture,"T lymphocytes [1]; Epo added, absence of IL-2",yielding higher cell numbers
same,DNA synthesis elicited by Epo,T lymphocytes [2],stimulation was higher
same,long-term cell growth of Jurkat cells,Jurkat cells,does not adversely affect
